Results as given in article PMC7726095 (Current biology : CB, 2020).

Target: APC-B (APC Basic domain, residues 2167-2674), without SNAP (human, UniProt P25054 2167-2674)
Assay: other fluorescence titration

B1: EB1 (full-length, untagged, unlabeled) (natural protein, human, UniProt Q15691 1-268, looked up)
chain: MAVNVYSTSVTSDNLSRHDMLAWINESLQLNLTKIEQLCSGAAYCQFMDMLFPGSIALKKVKFQAKLEHEYIQNFKILQAGFKRMGVDKIIPVDKLVKGKFQDNFEFVQWFKKFFDANYDGKDYDPVAARQGQETAVAPSLVAPALNKPKKPLTSSSAAPQRPISTQRTAAAPKAGPGVVRKNPGVGNGDDEAAELMQQVNVLKLTVEDLEKERDFYFGKLRNIELICQENEGENDPVLQRIVDILYATDEGFVIPDEGGPQEEQEEY
In the case of B1, the IC50 is reported as about 300 nM.
